Source: patent US20240287177A1 (Merck KGaA, published 2024)
Values belong to the binder of their own block, whether it stands above or below them.

Experiments:
[1] = target: NKp30 on human NK cells (human) (UniProt O14931); assay: cell-based or functional assay
[2] = target: FcγRIIIa on human NK cells (human) (UniProt P08637); assay: cell-based or functional assay
[3] = target: recombinant human NKp30 extracellular domain, his-tagged (human) (UniProt O14931); assay: BLI, SEEDbody on anti-human Fc sensors, soluble NKp30, 1:1 fit
[4] = target: T1, recombinant human NKp30 extracellular domain, his-tagged (human, UniProt O14931 19-135); assay: BLI as in Example 1
T1 construct: BLI used human NKp30 bought from Abcam (his-tagged ECD); also called rh NKp30 ECD; human NKp30 (Abcam); not shown: his tag
T1 sequence: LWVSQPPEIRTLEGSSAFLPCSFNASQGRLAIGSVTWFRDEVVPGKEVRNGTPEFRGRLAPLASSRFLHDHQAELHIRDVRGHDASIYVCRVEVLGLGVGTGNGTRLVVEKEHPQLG

[5] = target: T1, recombinant human NKp30 extracellular …; assay: BLI as in Example 1, maximum binding capacity

Chain of FcγRIIIa on human NK cells (human) (P08637 17-254): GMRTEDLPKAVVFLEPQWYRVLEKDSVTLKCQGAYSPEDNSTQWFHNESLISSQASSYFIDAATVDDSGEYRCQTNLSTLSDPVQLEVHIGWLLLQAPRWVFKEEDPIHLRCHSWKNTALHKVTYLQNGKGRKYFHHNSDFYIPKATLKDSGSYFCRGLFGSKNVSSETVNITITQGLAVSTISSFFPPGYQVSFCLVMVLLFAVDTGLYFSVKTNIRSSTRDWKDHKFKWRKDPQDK

B2: VHH1.5 (humanized) (VHH)
VHH: EVQLVESGGGVVQPGGSLRLSCAASGFTLDDYTIGWVRQAPGKGLEGVSCFSPSDGTTYYADSVKGRFTISRDNAKNTVYLQMNSLRAEDTAVYYCAASFADGSSWCYDYWGQGTLVTVSS
notes: expressed and measured by BLI 'as described in Experiment 1' (there: bispecific SEEDbody on anti-human Fc sensors)
Kd [4]: 0.888 nM
Emax (nm) [5]: 0.1 nm

B3: VHH1.9 (humanized) (VHH)
VHH: EVQLVESGGGVVQPGGSLRLSCAASGFTLDDYTIGWVRQAPGKGLEGVSCFSPSDGTTYYADSVKGRFTISRDNAKNTLYLQMNSLRAEDTAVYYCAASFADGSSWCYDYWGQGTLVTVSS
notes: as for B2
Kd [4]: 1.06 nM
Emax (nm) [5]: 0.1 nm

B5: VHH1.7 (humanized) (VHH)
VHH: EVQLVESGGGVVQPGGSLRLSCAASGFTLDDYTIGWVRQAPGKGLEGVSCFSPSDGTTYYADSVKGRFTFSRDNAKNTLYLQMNSLRAEDTAVYYCAASFADGSSWCYDYWGQGTLVTVSS
notes: as for B2
Kd [4]: 0.533 nM
Emax (nm) [5]: 0.09 nm

B7: VHH2 SEEDbody eff- (bispecific antibody, part only; not given: silenced SEED Fc and cetuximab Fab, V domains shown, not shown: another chain or arm of the molecule; a dimerising Fc or GST; small tags and cut ends)
VHH: DVQLQESGGGLVQAGGSLRLSCAVSGQTWTNYHIGWFRQAPGKARESVASIEWGGRGTYATDSVKGRFTISRDNAKNTVYLQMNSLKPEDTAVYYCAAQSSSRSPLESNYDYWGQGTQVTVSS
EC50 (nM), MNC based killing of A431 cells, E:T 80:1 [1]: 0.0132 nM
EC50, lysis of A431 cells by isolated NK cells, E:T 10:1 [1]: 0.0344 nM
Max. IFNγ release (pg/ml), NK cells with A431 cells [1]: 580 pg/mL
Max. Killing (% Lysis), MNC based killing of A431 cells, E:T 80:1 [1]: 51 % Lysis
Max. TNFα release (pg/ml), NK cells with A431 cells [1]: 118 pg/mL
EC50, lysis of A431 cells by isolated NK cells, E:T 10:1 [2]: 0.0039 nM
fold increase of killing potency, eff+ against eff- [2]: 8.8 fold
Kd [3]: 3.27 nM
koff [3]: 0.000646 s⁻¹
kon [3]: 198000 M⁻¹ s⁻¹

Second part, led by results:

EC50, lysis of A431 cells by isolated NK cells, E:T 10:1 [1]: 0.0022 nM
Max. IFNγ release (pg/ml), NK cells with A431 cells [1]: 753 pg/mL
Max. TNFα release (pg/ml), NK cells with A431 cells [1]: 104 pg/mL
EC50, lysis of A431 cells by isolated NK cells, E:T 10:1 [2]: 0.0032 nM
Kd [3]: 0.27 nM
koff [3]: 0.000222 s⁻¹
kon [3]: 819000 M⁻¹ s⁻¹
B1: VHH1 SEEDbody eff- (bispecific antibody, part only; not given: silenced SEED Fc and cetuximab Fab, V domains shown, not shown: another chain or arm of the molecule; a dimerising Fc or GST; small tags and cut ends)
VHH: DVQLQESGGGLVQPGGSLRLSCATSGFTLDDYTIGWVRQAPGKEHEGVSCFSPSDGTTYYADSVKGRFTFSRDNAKNTVYLQMNSLKPEDTAVYYCAASFADGSSWCYDYWGQGTQVTVSS
EC50 (nM), MNC based killing of A431 cells, E:T 80:1 [1]: 0.00171 nM
Max. Killing (% Lysis), MNC based killing of A431 cells, E:T 80:1 [1]: 53 % Lysis

Kd [4]: 1.13 nM
Emax (nm) [5]: 0.1 nm
B4: VHH1.8 (humanized) (VHH)
VHH: EVQLVESGGGVVQPGGSLRLSCATSGFTLDDYTIGWVRQAPGKGLEGVSCFSPSDGTTYYADSVKGRFTISRDNAKNTLYLQMNSLRAEDTAVYYCAASFADGSSWCYDYWGQGTLVTVSS
notes: as for B2

Kd [4]: 0.797 nM
Emax (nm) [5]: 0.14 nm
B6: VHH1.6 (humanized) (VHH)
VHH: EVQLVESGGGVVQPGGSLRLSCATSGFTLDDYTIGWVRQAPGKGLEGVSCFSPSDGTTYYADSVKGRFTFSRDNAKNTLYLQMNSLRAEDTAVYYCAASFADGSSWCYDYWGQGTLVTVSS
notes: as for B2
